The results in this text go back to patent US20130007915A1.

The target in the experiment is actin filament. The experiment in a line: cell-based or functional assay.

Substance “Flag-chimera XI protein (chimeric myosin XI: Chara corallina myosin XI motor domain on the A. thaliana MYA2 backbone, FLAG-tagged)” returned a sliding velocity (in vitro sliding filament assay) of 16.2 µm/sec.
In the case of “wild-type A. thaliana myosin XI-2 (MYA2), expressed from the Flag-MYA2 XI gene (from UniProt Q9LKB9 1-1505)” it was 7 µm/sec.
